Target: H3K9me3(1–16) peptide

GST-HP1γWT (recombinant full-length mouse heterochromatin protein 1 gamma, wild type) (from UniProt P23198 1-183) (natural protein)
HP1γ citrullination by PADI4 in the in vitro citrullination assay with added H3K9me3 peptides (immunoblot with anti-peptidyl-citrulline antibody; fold change against unmethylated H3 peptide): 2 fold

From article PMC6444592, “Citrullination of HP1γ chromodomain affects association with chromatin” (Epigenetics & Chromatin, 2019)
